Literature values in paper PMC5268426.
Like-named read-outs stand apart in the source and are kept apart here.

Key:
Prostasin (Homo sapiens) = Prostasin (Homo sapiens) (UniProt Q16651)
[1] = biological target: Pancreatic trypsin inhibitor (PTI) (Bos taurus) (UniProt P00974)
[2] = biological target: Pancreatic trypsin inhibitor (PTI) (Bos taurus) (UniProt P00974); remark: listed apart in the source

## HAI-2 (from UniProt O43291)
Prostasin (Homo sapiens)
  Ki: 5 nM

## Trypsin (from UniProt P00760)
[1]
  Kd: 0.06 pM

## Trypsinogen (from UniProt P00760)
[2]
  Kd: 2000 nM
